Assay results reported in US20240182536A1 (MURAL ONCOLOGY, published 2024).
Substitutions are numbered along the chain they refer to. In names and notes the source's numbering stands.

T1: IL-18 receptor (IL-18Rα and IL-18Rβ) (UniProt Q13478 19-541; O95256 20-599, limits assumed)
T1 sequence (looked up) 1: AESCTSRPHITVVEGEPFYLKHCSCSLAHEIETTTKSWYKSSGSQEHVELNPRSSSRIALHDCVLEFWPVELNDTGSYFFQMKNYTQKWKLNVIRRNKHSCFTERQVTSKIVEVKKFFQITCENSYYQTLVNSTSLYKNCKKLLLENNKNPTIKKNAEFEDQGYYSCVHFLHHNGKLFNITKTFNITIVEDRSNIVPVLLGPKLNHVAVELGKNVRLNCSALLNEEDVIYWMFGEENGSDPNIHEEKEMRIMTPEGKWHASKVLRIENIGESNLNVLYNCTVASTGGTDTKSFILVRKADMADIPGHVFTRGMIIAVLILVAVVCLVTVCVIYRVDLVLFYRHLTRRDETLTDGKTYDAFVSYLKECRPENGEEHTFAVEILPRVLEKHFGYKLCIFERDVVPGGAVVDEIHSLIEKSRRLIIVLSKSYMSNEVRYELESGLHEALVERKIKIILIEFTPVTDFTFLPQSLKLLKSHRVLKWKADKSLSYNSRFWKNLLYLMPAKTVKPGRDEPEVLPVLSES
T1 sequence (looked up) 2: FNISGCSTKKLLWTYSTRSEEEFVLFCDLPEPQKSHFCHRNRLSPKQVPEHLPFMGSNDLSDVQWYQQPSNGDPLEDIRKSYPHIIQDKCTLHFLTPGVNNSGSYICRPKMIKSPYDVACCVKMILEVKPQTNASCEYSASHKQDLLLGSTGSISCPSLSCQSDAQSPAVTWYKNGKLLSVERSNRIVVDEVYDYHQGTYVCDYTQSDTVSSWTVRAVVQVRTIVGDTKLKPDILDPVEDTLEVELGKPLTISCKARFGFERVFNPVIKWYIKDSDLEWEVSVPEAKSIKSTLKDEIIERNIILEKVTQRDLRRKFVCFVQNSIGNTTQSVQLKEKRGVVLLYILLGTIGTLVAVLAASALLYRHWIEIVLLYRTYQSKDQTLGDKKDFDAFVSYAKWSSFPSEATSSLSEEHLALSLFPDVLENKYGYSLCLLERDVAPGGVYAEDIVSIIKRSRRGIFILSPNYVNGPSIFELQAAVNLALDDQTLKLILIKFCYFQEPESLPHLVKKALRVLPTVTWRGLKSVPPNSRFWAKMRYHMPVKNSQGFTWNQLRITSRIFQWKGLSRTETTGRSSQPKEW

T2: interleukin 18 binding protein (IL-18BP) (UniProt O95998 31-194)
T2 sequence (looked up): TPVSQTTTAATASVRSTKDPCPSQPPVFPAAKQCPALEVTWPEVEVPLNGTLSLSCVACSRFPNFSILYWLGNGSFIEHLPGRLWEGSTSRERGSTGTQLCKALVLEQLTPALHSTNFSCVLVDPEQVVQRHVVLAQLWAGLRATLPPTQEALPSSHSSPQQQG

T3: IL-18 receptors on HEK-Blue IL-18 reporter cells (InvivoGen) (UniProt Q13478 19-541; O95256 20-599)
T3 sequence (looked up) 1: T1 sequence (looked up) 1
T3 sequence (looked up) 2: T1 sequence (looked up) 2

T4: human IL-18 binding protein (IL-18BP) (human, UniProt O95998 31-194)
T4 sequence (looked up): T2 sequence (looked up)

B1: IL-18 variant G3E, E6H, R27S, D54A, S55T, T63S, N91F, R104S (ligand)
chain: YFEKLHSKLSVIRNLNDQVLFIDQGNSPLFEDMTDSDMRDNAPRTIFIISMYKATQPRGMAVSISVKSEKISTLSSENKIISFKEMNPPDFIKDTKSDIIFFQSSVPGHDNKMQFESSSYEGYFLASEKERDLFKLILKKEDELGDRSIMFTVQNED
B2: IL-18 variant G3E, E6G, N91M, R104A (ligand)
chain: B1 chain with H6G, S27R, A54D, T55S, S63T, F91M, S104A
B3: IL-18 variant G3Q, E6K, D54S, S55P, T63S, N91S, R104Q (ligand)
chain: B1 chain with E3Q, H6K, S27R, A54S, T55P, F91S, S104Q
B4: IL-18 variant E6G, D54A, S55K, T63S, N91K, Q114R (ligand)
chain: B1 chain with E3G, H6G, S27R, T55K, F91K, S104R, Q114R
B5: IL-18 variant G3D, E6G, K53G, D54A, T63S, N91Y, R104Q (ligand)
chain: B1 chain with E3D, H6G, S27R, K53G, T55S, F91Y, S104Q
B6: IL-18 variant G3P, E6K, D54R, S55P, T63A, N91V (ligand)
chain: B1 chain with E3P, H6K, S27R, A54R, T55P, S63A, F91V, S104R
B7: IL-18 variant G3P, E6H, N91L (ligand)
chain: B1 chain with E3P, S27R, A54D, T55S, S63T, F91L, S104R
B8: IL-18 variant G3P, E6H, D54A, S55P, Q56K, T63S, N91M (ligand)
chain: B1 chain with E3P, S27R, T55P, Q56K, F91M, S104R
B9: IL-18 variant G3Q, E6Q, K53T, D54W, S55F, N91Y (ligand)
chain: B1 chain with E3Q, H6Q, S27R, K53T, A54W, T55F, S63T, F91Y, S104R
B10: IL-18 variant G3L, E6S, D54T, T63S, N91Y, R104Q (ligand)
chain: B1 chain with E3L, H6S, S27R, A54T, T55S, F91Y, S104Q
B11: IL-18 variant G3L, E6Y, D54T, T63S, N91Y, R104Q (ligand)
chain: B1 chain with E3L, H6Y, S27R, A54T, T55S, F91Y, S104Q
B12: IL-18 variant M60K (ligand)
chain: B1 chain with E3G, H6E, S27R, A54D, T55S, M60K, S63T, F91N, S104R
B13: IL-18 variant M60K, D157E (ligand)
chain: B1 chain with E3G, H6E, S27R, A54D, T55S, M60K, S63T, F91N, S104R, D157E
B14: hIL18 (G3V, K53S, M60K) - KiH (Fc fusion)
chain: B1 chain with E3V, H6E, S27R, K53S, A54D, T55S, M60K, S63T, F91N, S104R

target: T1, IL-18 receptor (IL-18Rα and IL-18Rβ); test: cell-based or functional assay

**Q.** B1 was tested. Which “EC50 (pM) - BP, HEK-blue re-screening” value did it give?
**A.** The value was 0.34 pM.

**Q.** B2 was tested. Which “EC50 (pM) - BP, HEK-blue re-screening” value did it give?
**A.** Its value is 0.17 pM.

**Q.** B3 was tested. Which “EC50 (pM) - BP, HEK-blue re-screening” value did it give?
**A.** Its value is 0.27 pM.

**Q.** For B4, which “EC50 (pM) - BP, HEK-blue re-screening” value is on record?
**A.** The value was 0.1 pM.

target: T2, interleukin 18 binding protein (IL-18BP); test: cell-based or functional assay

**Q.** B1 was tested. Which “EC50 (pM) + 100 nM BP, HEK-blue re-screening” value (shortened to “EC50 (pM) + 100 nM BP”) did it give?
**A.** The value was 3.01 pM.

**Q.** And the “Ratio (HEK-blue EC50, + 100 nM BP against - BP)” value?
**A.** The value was 8.9.

**Q.** Which “EC50 (pM) + 100 nM BP” value does the source give for B2 here?
**A.** The value was 3.49 pM.

**Q.** And the “Ratio (HEK-blue EC50, + 100 nM BP against - BP)” value?
**A.** Its value is 20.5.

**Q.** How did the “EC50 (pM) + 100 nM BP” value turn out when B3 was run?
**A.** The value was 7.45 pM.

**Q.** And the “Ratio (HEK-blue EC50, + 100 nM BP against - BP)” value?
**A.** The value was 27.6.

**Q.** With B4 as the binder, how does the “EC50 (pM) + 100 nM BP” value read?
**A.** The value was 2.17 pM.

**Q.** What about the “Ratio (HEK-blue EC50, + 100 nM BP against - BP)” value of the same binder?
**A.** Its value is 21.7.

target: T1, IL-18 receptor (IL-18Rα and IL-18Rβ); test: cell-based or functional assay; remark: another data set of the same source

**Q.** For B5, which “EC50 (pM) - BP, HEK-blue re-screening” value is on record?
**A.** The value was 2.62 pM.

**Q.** B6 was tested. Which “EC50 (pM) - BP, HEK-blue re-screening” value did it give?
**A.** Its value is 9.07 pM.

**Q.** How did the “EC50 (pM) - BP, HEK-blue re-screening” value turn out when B7 was run?
**A.** Its value is 3.21 pM.

**Q.** How did the “EC50 (pM) - BP, HEK-blue re-screening” value turn out when B8 was run?
**A.** The value was 5.4 pM.

**Q.** How did the “EC50 (pM) - BP, HEK-blue re-screening” value turn out when B9 was run?
**A.** The value was 2.36 pM.

**Q.** For B10, which “EC50 (pM) - BP, HEK-blue re-screening” value is on record?
**A.** The value was 0.02 pM.

**Q.** How did the “EC50 (pM) - BP, HEK-blue re-screening” value turn out when B11 was run?
**A.** Its value is 0.03 pM.

target: T2, interleukin 18 binding protein (IL-18BP); test: cell-based or functional assay; remark: another data set of the same source

**Q.** B5 was tested. Which “EC50 (pM) + 300 nM BP, HEK-blue re-screening” value did it give?
**A.** Its value is 3.11 pM.

**Q.** And the “Ratio (HEK-blue EC50, + 300 nM BP against - BP)” value?
**A.** The value was 1.2.

**Q.** Which results are given for B6?
**A.** EC50 (pM) + 300 nM BP, HEK-blue re-screening: 10.1 pM; Ratio (HEK-blue EC50, + 300 nM BP against - BP): 1.1

**Q.** With B7 as the binder, how does the “EC50 (pM) + 300 nM BP, HEK-blue re-screening” value read?
**A.** Its value is 5.34 pM.

**Q.** And the “Ratio (HEK-blue EC50, + 300 nM BP against - BP)” value?
**A.** Its value is 1.7.

**Q.** Which results are given for B8?
**A.** EC50 (pM) + 300 nM BP, HEK-blue re-screening: 8.23 pM; Ratio (HEK-blue EC50, + 300 nM BP against - BP): 1.5

**Q.** Which “EC50 (pM) + 300 nM BP, HEK-blue re-screening” value does the source give for B9 here?
**A.** The value was 2.54 pM.

**Q.** And the “Ratio (HEK-blue EC50, + 300 nM BP against - BP)” value?
**A.** The value was 1.1.

**Q.** With B10 as the binder, how does the “EC50 (pM) + 300 nM BP, HEK-blue re-screening” value read?
**A.** Its value is 0.51 pM.

**Q.** And the “Ratio (HEK-blue EC50, + 300 nM BP against - BP)” value?
**A.** The value was 25.5.

**Q.** How did the “EC50 (pM) + 300 nM BP, HEK-blue re-screening” value turn out when B11 was run?
**A.** Its value is 0.37 pM.

**Q.** And the “Ratio (HEK-blue EC50, + 300 nM BP against - BP)” value?
**A.** The value was 12.3.

target: T3, IL-18 receptors on HEK-Blue IL-18 …; test: cell-based or functional assay

**Q.** B12 was tested. Which “HEK-Blue EC50 pM, NO BP (50 nM BP run)” value did it give?
**A.** Its value is 2.9 pM.

**Q.** What about the “HEK-Blue EC50 pM, NO BP (300 nM BP run)” value of the same binder?
**A.** Its value is 3.96 pM.

**Q.** What does the source list for B13?
**A.** HEK-Blue EC50 pM, NO BP (50 nM BP run): 1.3 pM; HEK-Blue EC50 pM, NO BP (300 nM BP run): 1.67 pM

target: T4, human IL-18 binding protein (IL-18BP); test: cell-based or functional assay

**Q.** What does the source list for B12?
**A.** Fold Change (BP/NO BP), 50 nM BP: 1.64 fold; Fold Change (BP/NO BP), 300 nM BP: 9.67 fold; HEK-Blue EC50 pM, +50 nM BP: 4.77 pM; HEK-blue EC50 (pM) + 300 nM BP: 38.3 pM

**Q.** B13 was tested. Which “Fold Change (BP/NO BP), 50 nM BP” value did it give?
**A.** The value was 1.25 fold.

**Q.** What about the “Fold Change (BP/NO BP), 300 nM BP” value of the same binder?
**A.** The value was 9.04 fold.

**Q.** What about the “HEK-Blue EC50 pM, +50 nM BP” value of the same binder?
**A.** The value was 1.62 pM.

**Q.** And the “HEK-blue EC50 (pM) + 300 nM BP” value?
**A.** The value was 15.1 pM.

target: T1, IL-18 receptor (IL-18Rα and IL-18Rβ); test: cell-based or functional assay; remark: another data set of the same source

**Q.** Which results are given for B14?
**A.** EC50 (pM), PBMC IFN gamma assay, average: 576 pM; EC50 (pM), PBMC IFN gamma assay, run 1: 589 pM; EC50 (pM), PBMC IFN gamma assay, run 2: 535 pM; EC50 (pM), PBMC IFN gamma assay, run 3: 603 pM; PBMC IFN gamma EC50 relative to WT-IL18, average: 3.75; PBMC IFN gamma EC50 relative to WT-IL18, run 1: 2.45; PBMC IFN gamma EC50 relative to WT-IL18, run 2: 5.08; PBMC IFN gamma EC50 relative to WT-IL18, run 3: 3.73
